Earlier results as cited in patent US20070155650A1, “Use of cathepsin z inhibitors for the treatment of rhuematoid arthritis and other autoimmune diseases” (AVENTIS PHARMACEUTICALS INC., priority 2003, published 2007).
Where two headings read alike, the source gives them in different places.

B1: stefin A: protein inhibitor shown to inhibit Cathepsin Z activity (protein, UniProt P01040 1-98, looked up)
Cystatin-A: MIPGGLSEAKPATPEIQEIVDKVKPQLEEKTNETYGKLEAVQYKTQVVAGTNYYIKVRAGDNKYMHLKVFKSLPGQNEDLVLTGYQVDKNKDDELTGF
B2: stefin B: protein inhibitor shown to inhibit Cathepsin Z activity (protein, UniProt P04080 1-98, looked up)
Cystatin-B: MMCGAPSATQPATAETQHIADQVRSQLEEKENKKFPVFKAVSFKSQVVAGTNYFIKVHVGDEDFVHLRVFQSLPHENKPLTLSNYQTNKAKHDELTYF
B3: chicken cystatin: protein inhibitor shown to inhibit Cathepsin Z activity (protein, UniProt P01038 24-139, looked up)
Cystatin: SEDRSRLLGAPVPVDENDEGLQRALQFAMAEYNRASNDKYSSRVVRVISAKRQLVSGIKYILQVEIGRTTCPKSSGDLQSCEFHDEPEMAKYTTCTFVVYSIPWLNQIKLLESKCQ
B4: cystatin C: protein inhibitor shown to inhibit Cathepsin Z activity (protein, UniProt P01034 27-146, looked up)
Cystatin-C: SSPGKPPRLVGGPMDASVEEEGVRRALDFAVGEYNKASNDMYHSRALQVVRARKQIVAGVNYFLDVELGRTTCTKTQPNLDNCPFHDQPHLKRKAFCSFQIYAVPWQGTMTLSKSTCQDA

How the values were obtained:
[1] = molecular target: Cathepsin Z (Homo sapiens, UniProt Q9UBR2); settings: result in words
Chain of Cathepsin Z (Q9UBR2 62-303): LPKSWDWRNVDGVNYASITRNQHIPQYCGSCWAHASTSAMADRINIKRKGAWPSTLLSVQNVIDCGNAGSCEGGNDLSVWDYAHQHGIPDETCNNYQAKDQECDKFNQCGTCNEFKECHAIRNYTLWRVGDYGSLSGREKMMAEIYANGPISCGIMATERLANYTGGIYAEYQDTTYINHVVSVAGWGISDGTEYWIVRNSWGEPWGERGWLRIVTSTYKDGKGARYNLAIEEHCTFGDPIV

[2] = molecular target: Cathepsin B (Homo sapiens, UniProt P07858); settings: result in words

| Molecule | Cathepsin Z activity inhibited or not [1] | Cathepsin B activity inhibited [2] | Cathepsin B activity inhibited ([2]; listed as CA-704) |
| --- | --- | --- | --- |
| CCCNC(=O)[C@H]1O[C@@H]1C(=O)N[C@H](C(=O)N1CCC[C@H]1C(=O)O)[C@@H](C)CC [CA-074] | inhibited | block Cathepsin B activity | known synthetic inhibitors of Cathepsin B |
| B1 | inhibited |  |  |
| B2 | inhibited |  |  |
| B3 | inhibited |  |  |
| B4 | inhibited |  |  |
